From publication PMC6906086 come the findings set out here.

In one data set the target is Lsr2BD WT (Mycobacterium tuberculosis H37Rv, UniProt P9WIP7 66-112). Description: fluorescence anisotropy; pH 7.5; 4 nM DNA. Conditions: protein: recombinant; tags: 6xHis; label: 5' Alexa Fluor 488; blunt. In general terms: Polarisation of emitted light reports the rotation of a fluorescent probe.
The target in the next data set is Lsr2 (Mycobacterium tuberculosis H37Rv, UniProt P9WIP7 1-112). Kind of data set: EMSA; 0.95-7.6 uM Lsr2. The settings on record: protein: recombinant; (pET15-TEV, Ni-NTA); chain copies: 2; blunt. In general terms: A gel shift assay detects complexes by their altered migration in electrophoresis.

Usually Kd stands for the concentration at which binding is half-saturated.

B1: AT-rich 14-mer (dsDNA)
DNA 1: CGCGCATATATGCG
DNA 2: CGCATATATGCGCG
Turning to B1, the dissociation constant (Kd) with Lsr2BD WT was found to be 210 ± 60 nM.

B2: leuS site (dsDNA)
DNA 1: AATTCGGCAAAATCGGTAAG
DNA 2: CTTACCGATTTTGCCGAATT
Turning to B2, the binding result with Lsr2 is reported as “binds”.
